Data as given in patent publication US6747136 (KAROLINA INNOVATIONS, dated 2004).
Positions count from the first letter of the chain named. Values joined by “and” are separate entries in the source; they are usually repeats but may differ in a detail not shown here. Equal entries are not always repeated.

B1: Fab molecule clone L1 (Fab, V domains shown)
VH: EVQLLESGGGVVQPGRSLRLSCAASGFTFSAYGMHWVRQAPGKGLEWVAGIWFDGSNQYYSDSVKGRFTVSRDNSRNTLFLQMNSLRPEDTAVYYCATEVLFGSIKGRYYLENWGQGTLVTVSS
VL: AELTQSPGTLSLSVGERATLSCRASQNIYSGYLGWYQQKPGQPPRLLIYGASNRATGIPDRFSGSGSGTDFTLTISRLESEDFAVYYCQQYGSPPYTFGQGTKVEIK
notes: also called Ll
B2: Fab molecule clone L3 (Fab, V domains shown)
VH: EVQLLESGGGVVQPGRSLRLSCAASGFTFKTYGMHWVRQAPGKGLEWVAGISFDGSNQYYADSVKGRFIVSRDNSRDTVFLQMSSLRLEDTAVYYCATEGSPFGSIKGRYYLENWGQGTLVTVSS
VL: AELTQSPATLSVSPGERASLSCRASQSVGNNLAWYQQKPGQAPRLLIYGGNTRATGTPDRFSGSGSGTEFTLTISSLQSEDFAVYFCQHYSTWPLTFGGGTKVEFK
B3: Fab molecule clone 1:5 (Fab, V domains shown)
VH: VQLLEQSGAEVRKPGSSVKVSCKASGGTFSGHVITWVRQAPGQGLEWMGESIPIFGSANYAQNYAQKFRDRVSIIADESTSTSFIELSNLRSDDTAVYYCARDPPRYCSAGRCYPGFFQQWGQGTLVTVSS
VL: AELTQSPGTLSLSPGERATLSCRASQSVSSNYLAWYQQRPGQAPRLLIYGASSRATGIPDRFSGSGSGTDFTLTISRLEPEDFAVYYCQLYGNSRWTFGQGTKVEIK
B4: Fab molecule clone 1:7 (Fab, V domains shown)
VH: VQLLEQSGAEVKKPGSSVKVSCQVFGDTFSRYTIQWLRQAPGQGPEWMGNIIPVYNTPNYAQKFQGRLSITADDSTSTAYMELSSLRSEDTAVYFCARVVIPNAIRHTMGYYFDYWGQGTLVTVSS
VL: AELTQSPATLSLSPGERATLSCRASQSVNKYLAWYQQKPGQAPRLLIYDASNRATGIPARFSGSGSGTDFTLTISNLEPEDFAVYYCQQRSDWVTFGGGTKVEIK
B5: Fab molecule clone A12 (Fab, V domains shown)
VH: EVQLLESGSEVKKPGSSVKVSCRASGGSFRSYNFNWVRQAPGQGLEWMGGIIPMFGTANYAQKFQGRVTITADESTATGYMELSSLRSEDTAVYYCAMPYPKHCSRGSCWGWFDPWGQGTLVTVSS
VL: AELTQSPGTLSLSPGERATLSCRASQSLSSKYLAWYQQKPGQAPRLFIYDASSRATGIPDRFSGSGSGTDFTLSISRLEPEDFAVYYCQQYGTPRTFGQGTKVEIK
B6: Fab molecule clone A8 (Fab, V domains shown)
VH: EVQLLESGPGLVKPSGTLSLTCTVSGGSIRSSHWWSWVRQPPGKGLEWIGEVFFSGSTIYNPSLNDRVFMSVDKSKDQVSLRLSSVTAADTAVYYCARSPIKMNQGRMMLDAFDIWGQGTLVIVSS
VL: AELTQSPSSLSAFVGDRVTITCRASQSISRNLNWYQQKPGTAPKVLIYAASSLQSGVPSRFSGSGSGTDFTLTITSLQPEDFATYYCQQSYTTPRTFGQGTKVEVK
B7: Fab molecule clone 1:11 (Fab, V domains shown)
VH: VQLLEQSGAEVKKPGSSVKVSCKASGGTFSGHVISWVRQAPGQGLEWMGGSISFFGTSNSAQKFQGRVSITADESASTAYMELSSLRSEDTAIYYCAKDPPRFCSGGNCYPGFFQQWGQGTLVTVSS
VL: B3 VL with R23G, S29R, R39K, A51V, L90Q, N93S, R95P, W96R, V104L

biological target: T1, recombinant conformational HCV E2 antigen (HCV genotype 1a) (hepatitis C virus, HCV1 (genotype 1a), UniProt P26664 383-715); assay: not given
T1 sequence (P26664 383-715): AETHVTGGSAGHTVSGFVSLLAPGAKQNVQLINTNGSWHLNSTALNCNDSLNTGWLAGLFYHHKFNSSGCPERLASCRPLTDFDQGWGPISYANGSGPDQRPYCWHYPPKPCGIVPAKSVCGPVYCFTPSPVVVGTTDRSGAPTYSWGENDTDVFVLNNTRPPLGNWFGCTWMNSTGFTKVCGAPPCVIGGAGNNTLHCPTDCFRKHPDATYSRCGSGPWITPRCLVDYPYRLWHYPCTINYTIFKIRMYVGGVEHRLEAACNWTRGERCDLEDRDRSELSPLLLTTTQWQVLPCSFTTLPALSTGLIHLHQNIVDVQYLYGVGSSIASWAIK

| Binder | IC50 |
| --- | --- |
| B1 | 0.02 µg/mL and 0.03 µg/mL |
| B2 | 0.02 µg/mL |
| B3 | 1.5 µg/mL and 2.5 µg/mL |
| B4 | 0.02 µg/mL and 0.01 µg/mL |
| B5 | 0.1 µg/mL |
| B6 | 0.001 µg/mL |

biological target: T2, HCV E2 antigen (HCV genotype 1b) (hepatitis C virus genotype 1b); assay: NOB assay: Fab pre-mixed with E2 1b, E2 binding to MOLT-4 cells by flow cytometry; 50% reduction titer, Exp. II
T2 construct: also called E2 1b; E2 antigen of genotype 1b

| Binder | IC50 |
| --- | --- |
| B1 | 0.03 µg/mL |

biological target: T1, recombinant conformational HCV E2 …; assay: not given; remark: another data set of the same source

| Binder | Kd |
| --- | --- |
| B1 | ~28 nM |
| B2 | ~28 nM |
| B3 | > 100 nM |
| B7 | ~28 nM |
| B4 | ~6 nM |
| B5 | ~100 nM |
| B6 | ~6 nM |

biological target: T3, bovine serum albumin (bovine, UniProt P02769 25-607); assay: ELISA, […] (100 ug/ml) […]
T3 construct: also called BSA
T3 sequence (P02769 25-607 limits assumed): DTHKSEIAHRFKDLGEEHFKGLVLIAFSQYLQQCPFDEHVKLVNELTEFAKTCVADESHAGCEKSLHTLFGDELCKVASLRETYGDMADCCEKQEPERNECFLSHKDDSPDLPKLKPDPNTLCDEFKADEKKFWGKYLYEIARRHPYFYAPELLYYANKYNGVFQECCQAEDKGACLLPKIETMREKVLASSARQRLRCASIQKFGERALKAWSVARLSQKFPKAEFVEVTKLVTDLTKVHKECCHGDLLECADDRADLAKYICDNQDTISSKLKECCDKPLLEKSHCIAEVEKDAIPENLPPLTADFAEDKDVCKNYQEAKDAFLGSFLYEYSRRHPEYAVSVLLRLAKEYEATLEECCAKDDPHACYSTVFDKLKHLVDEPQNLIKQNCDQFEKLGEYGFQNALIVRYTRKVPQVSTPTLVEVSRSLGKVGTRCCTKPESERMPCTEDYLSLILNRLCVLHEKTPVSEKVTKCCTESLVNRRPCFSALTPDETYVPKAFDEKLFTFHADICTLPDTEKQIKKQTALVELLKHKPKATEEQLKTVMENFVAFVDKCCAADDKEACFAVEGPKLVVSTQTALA

| Binder | OD405 nm (ELISA reactivity) |
| --- | --- |
| B2 | 0.089 OD405 nm |
| B4 | 0.006 OD405 nm |

biological target: T1, recombinant conformational HCV E2 …; assay: ELISA, […] (100 ug/ml) […]

| Binder | OD405 nm (ELISA reactivity) |
| --- | --- |
| B2 | 1.7 OD405 nm |
| B4 | > 3 OD405 nm |

biological target: recombinant HCV E1/E2 complex antigen (hepatitis C virus, HCV1, UniProt P26664 192-383; P26664 384-746); assay: ELISA, […] (100 ug/ml) […]
Sequence (P26664 192-383 limits assumed, chain 1 of 2): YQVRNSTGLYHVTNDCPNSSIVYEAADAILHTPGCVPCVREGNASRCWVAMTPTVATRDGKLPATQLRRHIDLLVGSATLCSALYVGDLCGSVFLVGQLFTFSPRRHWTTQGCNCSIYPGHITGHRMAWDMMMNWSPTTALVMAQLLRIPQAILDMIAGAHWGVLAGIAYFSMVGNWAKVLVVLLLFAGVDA
Sequence (P26664 384-746 limits assumed, chain 2 of 2): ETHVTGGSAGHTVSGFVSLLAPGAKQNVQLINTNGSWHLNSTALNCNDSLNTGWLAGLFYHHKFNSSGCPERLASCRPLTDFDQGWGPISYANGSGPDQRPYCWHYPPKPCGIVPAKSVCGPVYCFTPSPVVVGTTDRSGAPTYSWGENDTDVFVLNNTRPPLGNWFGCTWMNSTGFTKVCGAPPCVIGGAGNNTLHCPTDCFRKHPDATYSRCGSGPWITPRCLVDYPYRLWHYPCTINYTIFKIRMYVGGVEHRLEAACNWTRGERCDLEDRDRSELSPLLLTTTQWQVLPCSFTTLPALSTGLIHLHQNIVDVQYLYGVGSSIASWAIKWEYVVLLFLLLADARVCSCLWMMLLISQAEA

| Binder | OD405 nm (ELISA reactivity) |
| --- | --- |
| B2 | 2.46 OD405 nm |
| B4 | > 3 OD405 nm |

biological target: T3, bovine serum albumin; assay: ELISA, coated BSA 5 ug/ml

| Binder | binding result |
| --- | --- |
| B2 | no binding |
| B3 | no binding |
| B4 | no binding |

biological target: T1, recombinant conformational HCV E2 …; assay: inhibition ELISA: coated E2 1a, soluble E2 as inhibitor

| Binder | Ka |
| --- | --- |
| B1 | ~4e+07 M⁻¹ |
| B2 | ~4e+07 M⁻¹ |
| B3 | < 1e+07 M⁻¹ |
| B7 | ~4e+07 M⁻¹ |
| B4 | ~2e+08 M⁻¹ |
| B5 | ~1e+07 M⁻¹ |
| B6 | ~2e+08 M⁻¹ |
